From PMC8092228 (mBio, 2021)

Biological target: LOV-PAS-HK construct of Brucella abortus LOV-HK (residues 15 to 489), called the full-length protein (Brucella abortus)
Test: SEC with static light scattering (SEC-SLS)

Sequence of LOV-PAS-HK construct of Brucella abortus LOV-HK (residues 15 to 489), called the full-length protein (enzyme) (A9MBM8 15-489 limits assumed): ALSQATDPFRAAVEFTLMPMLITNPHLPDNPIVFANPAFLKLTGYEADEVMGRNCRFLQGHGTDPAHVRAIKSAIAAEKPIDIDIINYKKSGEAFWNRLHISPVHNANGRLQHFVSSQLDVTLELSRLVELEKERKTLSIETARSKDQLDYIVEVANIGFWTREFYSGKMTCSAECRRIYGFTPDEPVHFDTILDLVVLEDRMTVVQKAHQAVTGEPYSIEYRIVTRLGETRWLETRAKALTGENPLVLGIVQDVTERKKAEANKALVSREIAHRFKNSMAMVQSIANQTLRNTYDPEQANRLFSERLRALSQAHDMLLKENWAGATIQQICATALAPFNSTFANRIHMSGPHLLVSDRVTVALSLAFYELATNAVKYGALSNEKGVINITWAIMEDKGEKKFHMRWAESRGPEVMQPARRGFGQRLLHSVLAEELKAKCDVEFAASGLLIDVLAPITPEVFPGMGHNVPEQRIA

## LOV-PAS-HK construct of Brucella abortus LOV-HK (residues 15 to 489), called the full-length protein (enzyme)
  stoichiometry N: 2
